In doi:10.1101/525659:

Target: His6-tagged αSyn (human) (UniProt P37840)
Assay: BLI

For “E234G/H363A-HYPE (from UniProt Q9BVA6 102-458) (enzyme)”, the Kd was 15.3 µM.
